From publication PMC5862501, “Lung macrophage scavenger receptor SR-A6 (MARCO) is an adenovirus type-specific virus entry receptor” (PLoS Pathogens, 2018)

Columns and labels:
[1] = molecular target: mouse SR-A6 expressed in L-929 cells (mouse) (UniProt Q60754); assay: binding of fluorophore-labelled virions to cells, confocal microscopy; Alexa-Fluor488-labelled HAdV-C5 bound at 4°C to L-929 cells transfected with mouse SR-A6-IRES-Tomato; Tomato-positive against Tomato-negative cells
[2] = molecular target: the molecule itself; assay: non-reducing SDS-PAGE; purified soluble mSR-A6; monomers and trimers

| Molecule | fold, mean cell-associated virus number in Tomato-positive over Tomato-negative cells [1] | stoichiometry N [2] |
| --- | --- | --- |
| human adenovirus type C5 (HAdV-C5) virion (complex) | 7 fold |  |
| soluble mouse SR-A6 (entire extracellular part) (domain or fragment, SR-A6 (MARCO), mouse, the entire extracellular part; Largely monomeric with a small amount of trimers (15-20%) in non-reducing SDS-PAGE; also called mSR-A6 soluble; soluble SR-A6) QVLNLQEQLQMLEMCCGNGSLAIEDKPFFSLQWAPKTHLVPRAQGLQALQAQLSWVHTSQEQLRQQFNNLTQNPELFQIKGERGSPGPKGAPGAPGIPGLPGPAAEKGEKGAAGRDGTPGVQGPQGPPGSKGEAGLQGLTGAPGKQGATGAPGPRGEKGSKGDIGLTGPKGEHGTKGDKGDLGLPGNKGDMGMKGDTGPMGSPGAQGGKGDAGKPGLPGLAGSPGVKGDQGKPGVQGVPGPQGAPGLSGAKGEPGRTGLPGPAGPPGIAGNPGIAGVKGSKGDTGIQGQKGTKGESGVPGLVGRKGDTGSPGLAGPKGEPGRVGQKGDPGMKGSSGQQGQKGEKGQKGESFQRVRIMGGTNRGRAEVYYNNEWGTICDDDWDNNDATVFCRMLGYSRGRALSSYGGGSGNIWLDNVNCRGTENSLWDCSKNSWGNHNCVHNEDAGVECS |  | 3 |
